The text below walks through data of the DeepSol protein solubility set.

This data set can be described thus: soluble on expression in E. coli; label from the status in PepcDB or PDB records.
Take “MINSINIQIRETNTDDFDSIMTVEKQAFGYDKEAQLVADLLADKTAEPMVSLLAFYKGEAVGHILFTRAYFDGQGALQMMHILAPLAVKPEYQRQGIGGMLIRAGIERLQEKGSCLVFVLGHKEYYPEYGFIPDAARLGYPAPYPILEQFSDYWMVQAISPKGFDVDKGKIRCSDELNKPEHWRDDESDR”: the “soluble on expression in E. coli” value is on record as “not soluble”. For “MVGWWPVGRRQAWHRFFPCHRRPALRCDAHSFFAPGKHIMAHRILTLGEITDGFDVVLSDVWGVLHNGVSAFPDAAVALHEARKAGKTVVLITNSPRPAPGVIAQLRVLGVPDEAYDRIITSGDVTRGLIAEGPKKVFLLGPERDMPLLEGLDVERVGEAEAQSVVCTGFFDDETETPEDYTEMLKGFIARKVPMICANPDLVVERGERIIPCAGAMAAYYEQLGGEVRIAGKPHAPIYEACLAAAKDVRGAFAKDRVLAIGDGMPTDVKGAIASGLNLLYISGGIHAAEYTLNGQTDEALLNAYLKGQGAAPGWWMPRLA”, the “soluble on expression in E. coli” value is “not soluble”.

On to “MGSDKIHHHHHHMKTRESSVGLKFRKFNRFYTNVLGFLNEHIYDSPFSLTETRILFEIYNTPNCTAKALQDKLGLDRGYVSRIVKQFEKEDLIYKQRSKDDARHHYIFVTETGKTIYKKLEEKANEQVELMLKVINQKEQHKLAEAMAEIEAILSQSLSARASEISIRDYFLSEDLQLLIEKQRQFYAEAHGWDDTFLAYLQETFDADIEKIWIAESGGKFAGSVGLVKHDEKTVQLRWFLVDADFRGRGLGTQLLEHLVAYCQDMKFDRIFLWTVSTMAEARPLYKKFGFRISEVKQEAPLWGQQLTEERWDLELS”, for which the “soluble on expression in E. coli” value was “not soluble”.

Turning to “MFNHVTVLLKETVDGLDIKPDGTYVDCTLGGGGHSSYLLSQLTEGGRLIAFDQDEIAIQNAKEKFSSYGEQFITVKSNFRYLSEKLQELGITEVDGILFDLGVSSPQLDTPERGFSYHHDAPLDMRMDQDAPLTAYDVVNSWSYEQLVRIFFQYGEEKFSKQIARKIEAYRENKAIETTGELVELIKEGIPAPARRTGGHPAKRVFQAIRIAVNDELKVFEEALESAIEMVKPGGRVSVITFHSLEDRICKTTFKRNSTTPQLPPGLPIIPDEFKPKLKLITRKPILPSDIELEENNRARSAKLRIAEKR”, the “soluble on expression in E. coli” value is on record as “not soluble”. To “MGSDKIHHHHHHMLSVNRIVISAAGGGKTTRVVDQALACEQGQGATALITYTRNNVREIQLKAYERTRTIPSHVEVISWYSFLLRELARPYRSAMHASRVDGIHWVEGKSVPYIPEARTSGHYFFDGSRIYSDKIAKFVCECDRRSGGAIMRRLKQRFRHIIIDEIQDMAGYDLDLLELILKAGVPVTFVGDHRQATFATNNASKNKVFSGPAIIKKFELWKKQGLVEIEYETHTHRCNQTIADLGDGFFPNEPKTVSRNDKVTGHDGVFLVSSADVGEYMKRFAPQVLRYSAATNCDLDEAMNFGESKGLTFERVLIYPHGPARKWLASGDIRHVEKSLTKMYVAVTRARYSVAFVHDGKICSVAATKWVPG” belongs “not soluble”.

Consider “MSLATVPTRSGSPRQLTTKQTGDAWEAQARRWLEGKGLRFIAANVNERGGEIDLIMREGRTTVFIEVRYRRSALYGGAAASVTRSKQHKLLQTARLWLARHNGSFDTVDCRFDVVAFTGNEVEWIKDAFNDHSEGHHHHHH”, for which the “soluble on expression in E. coli” value is on record as “soluble”.

Turning to “MGSDKIHHHHHHMRIMPINSFENYPMSWKPSIDKAEKPIYKALAGQLEQDILNGVLLPGTKLPPQRELADYLDLNVSTISKAFKVCELKGLLSATVGSGTFVSYDALSNAYLLEDTKPTHLIEMGAILPDHASYEPLLYQLKNMVHEEDYEKWFSYGRAGESLWQKDAAVKLIQRGGFETSVDHILFANGGQNAIAATLASLCKPGDRIGVDHHTYPGLKTVASLLSVQIVPIKSENDEMSPESLEYACKNENIKGLYLIPDYHNPTTSFMSVENRRMVADIVKKYNLFVIEDASYHLLNKNPLPALASFAPQQVIHIASLSKSLAPGLRLAYVAVPRQYKEPISKALYNLNITVSPLLAELTARTIVSNQFEVLIESHREQTIRRNQLVNRYVAGYTCLGVETGIFRWLLLPGKMSGAEFEELAARLGVQVYAAERFVVGNSCPERAVRVSVCAPKTLEELEQGLMILRRLLDDLT”, the “soluble on expression in E. coli” value is on record as “not soluble”. Next, “MSKSPDAFRTISEVAEWLGVQAHVLRFWESKFNQVKPVKRAGGRRYYRPADMQLLGGIKKLLHDDGMTIKGVQKLLREQGVAHVAEQSQD”: “not soluble”; “DSSALPTKRKTVKLFWRELKLAGGHGVSASRFGPCATLWASLDPVSVDTARLEHLFESRAKEVLPSKKAGEGRRTMTTVLDPKRSNAINIGLTTLPPVHVIKAALLNFDEFAVSKDGIEKLLTMMPTEEERQKIEEAQLANPDIPLGPAENFLMTLASIGGLAARLQLWAFKLDYDSMEREIAEPLFDLKVGMEQLVQNATFRCILATLLAVGNFLNGSQSSGFELSYLEKVSEVKDTVRRQSLLHHLCSLVLQTRPESSDLYSEIPALTRCAKVD”: “not soluble”. To “GMVEKPQLKFKSPIDNSESHPFIPLLKEKPNALKPLSESLRLVDDDENNPSHYPHPYEYEIDHQEYSPEILQIREEIPSKSWDDSVPIWVDTSTELESMLEDLKNTKEIAVDLEHHDYRSYYGIVCLMQISTRERDYLVDTLKLRENLHILNEVFTNPSIVKVFHGAFMDIIWLQRDLGLYVVGLFDTYHASKAIGLPRHSLAYLLENFANFKTSKKYQLADWRIRPLSKPMTAAARADTHFLLNIYDQLRNKLIESNKLAGVLYESRNVAKRRFEYSKYRPLTPSSEVYSPIEKESPWKILMYQYNIPPEREVLVRELYQWRDLIARRDDESPRFVMPNQLLAALVAYTPTDVIGVVSLTNGVTEHVRQNAKLLANLIRDALRNIKNTNEEATPIPSSETKADGILLET” belongs “soluble”; to “GSDLTYAYLVGLFEGDGYFSITKKGKYLTYELGIELSIKDVQLIYKIKKILGIGIVSFRKRNEIEMVALRIRDKNHLKSFILPIFEKYPMFSNKQYDYLRFRNALLSGIISLEDLPDYTRSDEPLNSIESIINTSYFSAWLVGFIEAEGCFSVYKLNKDDDYLIASFDIAQRDGDILISAIRKYLSFTTKVYLDKTNCSKLKVTSVRSVENIIKFLQNAPVKLLGNKKLQYLLWLKQLRKISRYSEKIKIPSNY”, “soluble”.

Take “MGHHHHHHSHDSLAEFKVPLILFSGGEPLLREDIFEIAGYAKKKGIKSVLSTNGTLIDRDMAENLKVFEYVGVSLDGVASTNDRFRGVEGAYERAFKGLLMASEVVLSGIRFTVSKYNYKDVFSLIELAREHEIPRFCLYHLVPSGRAEFKDDITNEQRRALLDNLLREAEKEGMEIMTVDNPADGIYTYLKLKEADSEKAEMALEFLKFRGGDSSGIRLANIDHQGNVHPNQFW”: the “soluble on expression in E. coli” value is “soluble”. Next, “MLENSKKLIMNFVLKYSKKKRQNSGINISEICKFFEHVPLSCAALGLATKKNFGGEICAFKERKIKNYCKIFEPKSALFQTPPPPLIVGVISGAH”: “soluble”; “ADMGEKFDATFKAQVKAAKADMVMLSPKDAYKLLQENPDITLIDVRDPDELKAMGKPDVKNYKHMSRGKLEPLLAKSGLDPEKPVVVFCKTAARAALAGKTLREYGFKTIYNSEGGMDKWLEEGLPSLDRSHHHHHH”: “soluble”. Next, “VSIKKSSGLNFDNTAIAINAGKGLEFDTNTSESPDINPIKTKIGSGIDYNENGAMITKLGAGLSFDNSGAITIGNKNDDKLTLWTTPDPSPNCRIHSDNDCKFTLVLTKCGSQVLATVAALAVSGDLSSMTGTVASVSIFLRFDQNGVLMENSSLKKHYWNFRNGNSTNANPYTNAVGFMPNLLAYPKTQSQTAKNNIVSQVYLHGDKTKPMILTITLNGTSESTETSEVSTYSMSFTWSWESGKYTTETFATNSYTFSYIAQE”: “soluble”; “SSSESEKDKERLIQAAKMFFFHVQDLASVINTLTELFSRSMNTQILLMAVRNNSYIKDFFEQMLKIFKEMQSVVDARHDKIQKESLCSKVAMAMCSVVQKSTNVEELHQSAKEVFKSAHTPVIISVLNSSNILGSLESSLSHLMKFPIMNLQLSDFYTEDTKEQSDVTTSERTRSPPGSSKTTMIDTLKKLQDVLKTEDSKNPTKSAADLLEQIVKAMGPILEILQKAIKTMEMNISVFKKASDK”: “soluble”; “MAKQSGGKPQIDEDFMKEIISQGLPVKKQETPLVTVETPDKPETVNKEEIKAEPKEEKAVKEPARRKKNTPGDYRETYFMRVDLTDRQPLYVSRTTHEKLMKIVTVIGGRKATVSSYVENILLRHFDQFQDEINELYESKFEKPF”: “soluble”. To “MGSDKIHHHHHHMQPNPTLDQLQIFVAVADSGSFSAAGRKLNRAQSVISYGIANLEAQLGLKLFEREGTREPQLTEIGRSMLEDARRMIGVLQRMRSRVDGHHHGLEAEVALSVDAALPSPVLVRVLKAFEAQFPTVMLRLHIGSLGLIPDHVVSGQADLGIGGLLGDVDVHLVRIGFMSIVLAAAPSHPLALLPKPLAIEDVREHTQLVVTDQSERTKGRDFGVFAYRTWRLTDMRTKHMLMREGLGWGGLPRWLIADDLVNGRLVELDLEPFSEVKSPMFAMHRNDSSPKPAAAWLIERFKRGLGCFNEFEPGEVPEDEPETIRQSAP” belongs “not soluble”; to “MSLHNRFSLAQTLVTTVEAESGTRAGGLTIATANAGYSGTGYITNMTSAADKLTIPVTVPSAGNYQLVIRYNGPYGPKDQDIYVNGVFVSSLHFPETTGYTDLTAGSLTLNAGANTIGIYKNWGYTDFDKISLFTVPLHDYSTVAPNLIDANATPEAKALYNYIKAGYGTRIISGQTSDYYNTVSPNAAKKPVIRAYDFQHYTVGYSYLWNNATASHTFGWEDDGTTQAAIDWYNSTCQKGMVAFHWHWHSPSGGQAGTNTFYTNSTAFDVTKAVTQGTPEYTAVIRDIDSIATQLKRLQAAGVPVLWRPLHEAGGAWFWWGAKGPAAALALYDMVYNRIVNYHNIHNLIWQWSTPEANWYPGNSKVDMLGYDSYPGAYNYGTQKLIFDQLYTIVNGQKILAMTENGPIPDPDLCFSSDAKWAYVMSWSDLVTQQNSSAQLNLVYNHAKVLTLDEVTTATNTAQLTAEGHHHHHH”, “soluble”; to “MAANQNVTKKKKAVIGGIFKAELNNFLMKELAEDGYSGVEVRSTPARAEVIIMATRTQNVLGERGRRIKELTSVVQKRFGFEEGSVELYAEKVSNRGLCAVAQCESLRYKLVGGLAVRRACYGVLRFIMESGAQGVEVIVSGKLRGQRAKAMKFVDGLMIHSGHPVNDYIQQAVRHVQLRQGVIGIKVKIMLPYDPRGQNGPRNALPDHVQIVEPQEEVLPKEPHSQHKEEKKDVQVPAAQPVAPVQ”, “not soluble”. Take “GAMGMDEGDGEGNILPIMQSIMQNLLSKDVLYPSLKEITEKYPEWLQSHRESLPPEQFEKYQEQHSVMCKICEQFEAETPTDSETTQKARFEMVLDLMQQLQDLGHPPKELAGEMPPGLNFDLDAL”: the “soluble on expression in E. coli” value is recorded as “soluble”. Regarding “AAKGNMQCNIFVPAGTSKGKTTQTRLYGANCIEVEGTREDVALAAIESSVTHGSHYVGHNWHPLFIEGVKSIAYEIWEQCGYKAPDNFVVPAGNGSLLAGAYIGFSELLKGGEISKLPRLFGIQSESIQPFVQTFNNKEINITSEDTIAEGIKIKRSSRMNEIVQFVKETNGNFISVNEQQIQSALKEMGAQGYFIEPTSATAFAGIAQLIKTQEIKPDELTVGVVTGNGLKATNSIEHLINDMRG”, the “soluble on expression in E. coli” value is “not soluble”. Regarding “MKRRESSPLISTILGIRYGRCVMGNFSIVIPTYNERDNIVKLVEEINRIVPYNSRILIVDDNSPDGTALILQELNIHNLTVLIRHNERGLGSALRYGISKAIELESDFIVTMDADFSHNPKYLPEMMKIALNENCDLVIGSRYVIGGGIENWSLSRRIISKGANYLFKLVSHSPIMDNTSNYRIYSRRAALLALECDTTNGYEFQICSIFKIIRNNLKIKEYPIIFVDRKTGKSKLNLKEILNWFLYIIRLSLSFLEHHHHHH”, the “soluble on expression in E. coli” value is given as “not soluble”.
